Reference: US20130337579, “Methods for Determining Protein Ligand Binding” (UNIVERSITY OF MARYLAND, COLLEGE PARK, published 2013)

Legend:
[1] = biological target: CRP (catabolite activator protein, cAMP receptor protein) (Escherichia coli, UniProt P0ACJ8 P0ACJ8:2-210); experiment: DRaCALA; 100 nM CRP, 4 nM probe, 200 uM cAMP; conditions: tags: His-CRP expressed from pBAD-CRP, Ni-NTA and anion exchange; chain copies: 2; label: 5'-32P
[2] = biological target: MBP (maltose binding protein) (UniProt P0AEX9 P0AEX9:27-396); experiment: DRaCALA; 100 nM MBP, 4 nM probe, 200 uM cAMP

Chain of CRP (catabolite activator protein, cAMP receptor protein) (P0ACJ8 2-210, one chain of several): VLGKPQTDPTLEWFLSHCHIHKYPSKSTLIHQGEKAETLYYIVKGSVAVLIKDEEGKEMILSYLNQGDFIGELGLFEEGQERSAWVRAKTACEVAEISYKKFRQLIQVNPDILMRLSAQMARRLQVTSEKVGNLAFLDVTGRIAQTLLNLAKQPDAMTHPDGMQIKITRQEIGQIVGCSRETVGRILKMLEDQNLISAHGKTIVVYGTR

Row | Binder | binding result [1] | binding result [2]
1 | 10:G-C oligo duplex (gd130/gd131) (dsDNA) DNA 1: AGGAGGAATAAATGTCATCTAGATGACATTTTAGAGGAGG DNA 2: CCTCCTCTAAAATGTCATCTAGATGACATTTATTCCTCCT | no binding | 
2 | ICAP oligo duplex (gd126/gd127) (dsDNA) DNA 1: AGGAGGAATAAATGTGATCTAGATCACATTTTAGAGGAGG DNA 2: CCTCCTCTAAAATGTGATCTAGATCACATTTATTCCTCCT |  | no binding
3 | 8,10:G-C oligo duplex (gd132/gd133) (dsDNA) DNA 1: AGGAGGAATAAATCTCATCTAGATGAGATTTTAGAGGAGG DNA 2: CCTCCTCTAAAATCTCATCTAGATGAGATTTATTCCTCCT | no binding | 
